Test results as given in US20220236279A1.

Biological target: human atypical chemokine receptor 3 (ACKR3) (human), P25106
Test: binding competition with CXCL12-AF647, flow cytometry
Settings: chains peptide; remark: other sources report otherwise

Sequence of human atypical chemokine receptor 3 (ACKR3) (human), P25106 (P25106 whole entry): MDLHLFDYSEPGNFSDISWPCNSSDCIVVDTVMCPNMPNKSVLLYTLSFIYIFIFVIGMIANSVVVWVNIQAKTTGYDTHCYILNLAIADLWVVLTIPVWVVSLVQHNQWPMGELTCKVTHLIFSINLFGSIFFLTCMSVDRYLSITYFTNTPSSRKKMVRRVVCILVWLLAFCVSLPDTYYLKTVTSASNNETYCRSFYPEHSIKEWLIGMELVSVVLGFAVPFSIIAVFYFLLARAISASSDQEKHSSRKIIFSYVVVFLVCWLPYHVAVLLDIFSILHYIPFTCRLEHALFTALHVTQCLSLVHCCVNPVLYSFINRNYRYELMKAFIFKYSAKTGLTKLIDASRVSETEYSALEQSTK

Binder: FGGFTGARKSARKLANQ [nociceptin, Q13519 130-146]
- IC50: > 10 µM
